Results: article PMC12596378, “Nonstructural Protein 1 Mediates HMGB1 Release by Targeting Histone H1.0 After Respiratory Syncytial Virus Infection In Vivo and In Vitro” (Inflammation, 2025)

Target: T1, His-H1.0 fusion protein (histone H1.0) (UniProt P07305 2-194)
T1 construct: histone H1.0; Used in the pull-down and as analyte in SPR; source: E. coli BL21, purified (Ni-NTA Sepharose)
Experiment: SPR; BIAcore T200; His-NS1 amine-coupled on a CM5 chip (600 RU); H1.0 at 0-500 nM in PBS flowed over, 30 uL/min, dissociation 360 s
Conditions: both partners purified

T1 sequence (P07305 2-194): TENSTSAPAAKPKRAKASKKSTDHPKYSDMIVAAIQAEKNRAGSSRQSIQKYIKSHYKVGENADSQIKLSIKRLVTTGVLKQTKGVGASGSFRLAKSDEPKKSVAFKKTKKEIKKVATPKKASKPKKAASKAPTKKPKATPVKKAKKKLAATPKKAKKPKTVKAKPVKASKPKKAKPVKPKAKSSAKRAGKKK

B1: His-NS1 fusion protein (respiratory syncytial virus nonstructural protein 1) (natural protein)
chain: MGSNSLSMIKVRLQNLFDNDEVALLKITCYTDKLIHLTNALAKAVIHTIKLNGIVFVHVITSSDICPNNNIVVKSNFTTMPVLQNGGYIWEMMELTHCSQPNGLLDDNCEIKFSKKLSDSTMTNYMNQLSELLGFDLNP
notes: nonstructural protein 1 (NS1) of respiratory syncytial virus; Immobilised by amine coupling on the CM5 chip; source: E. coli BL21, purified
With B1 the Kd was 31.2 nM and the kon was 25400 M⁻¹ s⁻¹.
